This is an account of results in US20160168247A1 (published 2016).

As usually defined, the EC50 is the concentration at which the effect is half-maximal. A lower EC50 goes with greater potency.

Where a chain is given by its changes, count along the chain named.

The labels stand for the following.
T1: HSC-F (cynomolgus monkey, UniProt Q95LI8 22-171; Q95LI7 23-181)
T1 chain: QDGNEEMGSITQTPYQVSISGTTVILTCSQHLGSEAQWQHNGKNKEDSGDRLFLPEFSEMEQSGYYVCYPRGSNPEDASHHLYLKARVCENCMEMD

B1: IgG1-CD3-LFLEDA (antibody, V domains shown)
VH: EVKLLESGGGLVQPKGSLKLSCAASGFTFNTYAMNWVRQAPGKGLEWVARIRSKYNNYATYYADSVKDRFTISRDDSQSILYLQMNNLKTEDTAMYYCVRHGNFGNSYVSWFAYWGQGTLVTVSA
VL: QAVVTQESALTTSPGETVTLTCRSSTGAVTTSNYANWVQEKPDHLFTGLIGGTNKRAPGVPARFSGSLIGDKAALTITGAQTEDEAIYFCALWYSNLWVFGGGTKLTVL
B2: IgG1-huCD3-H3L3-LFLEDA (antibody, V domains shown)
VH: B1 VH with L5V, Q13K, K15G, G16R, K19R, Q78K, N87S, A125S
VL: QAVVTQEPSFSVSPGGTVTLTCRSSTGAVTTSNYANWVQQTPGQAFRGLIGGTNKRAPGVPARFSGSILGNKAALTITGAQADDESDYYCALWYSNLWVFGGGTKLTVL
B3: IgG1-huCD3-H4L3-LFLEDA (antibody, V domains shown)
VH: B1 VH with L5V, Q13K, K15G, G16R, K19R, Q78K, N87S, L120M, A125S
VL: B2 VL
B4: IgG1-huCD3-H1L3-LFLEDA (antibody, V domains shown)
VH: B1 VH with L5V, K15G, K19R, Q78K, I80S, A125S
VL: B2 VL
B5: IgG1-huCD3-H3L1-LFLEDA (antibody, V domains shown)
VH: B1 VH with L5V, Q13K, K15G, G16R, K19R, Q78K, N87S, A125S
VL: not shown
B6: IgG1-huCD3-H4L1-LFLEDA (antibody, V domains shown)
VH: B1 VH with L5V, Q13K, K15G, G16R, K19R, Q78K, N87S, L120M, A125S
VL: not shown
B7: IgG1-CD3-LFLEDA (parental chimeric CD3 antibody with non-activating LFLEDA mutations) (antibody, V domains shown)
VH: B1 VH
VL: B1 VL
B8: bsIgG1 huCD3-H3L1×HER2-LFLEDA (bispecific antibody, V domains shown)
VH 1: B1 VH with L5V, Q13K, K15G, G16R, K19R, Q78K, N87S, A125S
VL 1: not shown
VH 2: QVQLVQSGAEVKKPGASVKVSCKASGYTFTNYGISWVRQAPGQGLEWMGWLSAYSGNTIYAQKLQGRVTMTTDTSTTTAYMELRSLRSDDTAVYYCARDRIVVRPDYFDYWGQGTLVTVSS
VL 2: EIVLTQSPATLSLSPGERATLSCRASQSVSSYLAWYQQKPGQAPRLLIYDASNRATGIPARFSGSGSGTDFTLTISSLEPEDFAVYYCQQRSNWPRTFGQGTKVEIK
B9: IgG1-huCD3-H1L2 (antibody, V domains shown)
VH: B1 VH with L5V, K15G, K19R, Q78K, I80S, A125S
VL: B2 VL with D87I, Y89F
B10: IgG1-huCD3-H3L3 (antibody, V domains shown)
VH: B1 VH with L5V, Q13K, K15G, G16R, K19R, Q78K, N87S, A125S
VL: B2 VL
B11: IgG1-huCD3-H1L3 (antibody, V domains shown)
VH: B1 VH with L5V, K15G, K19R, Q78K, I80S, A125S
VL: B2 VL
B12: IgG1-huCD3-H4L1 (antibody, V domains shown)
VH: B1 VH with L5V, Q13K, K15G, G16R, K19R, Q78K, N87S, L120M, A125S
VL: not shown
B13: bsIgG1 CD3xHER2-LFLEDA (bispecific antibody, V domains shown)
VH 1: B1 VH
VL 1: B1 VL
VH 2: B8 VH 2
VL 2: B8 VL 2
B14: bsIgG1 huCD3-H3L1xHER2-LFLEDA (bispecific antibody, V domains shown)
VH 1: B1 VH with L5V, Q13K, K15G, G16R, K19R, Q78K, N87S, A125S
VL 1: not shown
VH 2: B8 VH 2
VL 2: B8 VL 2
B15: bsIgG1 CD3×HER2 (bispecific antibody, V domains shown)
VH 1: B1 VH
VL 1: B1 VL
VH 2: B8 VH 2
VL 2: B8 VL 2
B16: bsIgG1-huCD3-H4L1xHER2-LFLEDA (bispecific antibody, V domains shown)
VH 1: B1 VH with L5V, Q13K, K15G, G16R, K19R, Q78K, N87S, L120M, A125S
VL 1: B2 VL
VH 2: B8 VH 2
VL 2: B8 VL 2

T2 sequence (chain, as listed by the source, chain 1 of 4): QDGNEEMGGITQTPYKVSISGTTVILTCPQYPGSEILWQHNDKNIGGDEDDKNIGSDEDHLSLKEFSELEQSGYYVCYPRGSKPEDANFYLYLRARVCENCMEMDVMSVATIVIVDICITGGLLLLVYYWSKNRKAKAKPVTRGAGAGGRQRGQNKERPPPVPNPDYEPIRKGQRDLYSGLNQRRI
T2 sequence (chain, as listed by the source, chain 2 of 4): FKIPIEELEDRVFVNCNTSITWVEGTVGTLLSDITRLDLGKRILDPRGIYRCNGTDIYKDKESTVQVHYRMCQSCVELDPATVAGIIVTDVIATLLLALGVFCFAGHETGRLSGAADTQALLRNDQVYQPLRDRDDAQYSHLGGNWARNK
T2 sequence (P09693 23-182, chain 3 of 4): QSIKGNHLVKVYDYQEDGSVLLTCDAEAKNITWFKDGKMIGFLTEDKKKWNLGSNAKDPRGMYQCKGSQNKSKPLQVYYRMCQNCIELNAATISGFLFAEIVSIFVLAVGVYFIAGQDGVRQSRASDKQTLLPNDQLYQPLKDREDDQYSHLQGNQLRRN
T2 sequence (P20963 22-164, chain 4 of 4): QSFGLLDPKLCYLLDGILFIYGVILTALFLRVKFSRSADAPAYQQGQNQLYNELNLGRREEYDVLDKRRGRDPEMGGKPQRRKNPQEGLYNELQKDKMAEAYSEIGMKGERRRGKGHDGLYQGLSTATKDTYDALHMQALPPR

The target in one test is T1, HSC-F. The test is described as follows: FACS binding.
B1 came in with an EC50 of 0.06 µg/mL.

The next test concerns the target T2, human CD3 (on the human T-cell line Jurkat or on human T-cells) (human, UniProt P09693 23-182; P20963 22-164). Nature of the test: FACS binding. (In flow cytometry, cells or beads pass a laser one at a time.)
Molecule B2 showed an EC50 of 0.08 µg/mL.
Take B3: the EC50 was found to be 0.08 µg/mL.
Same read-out and setting: in the case of B4 it was 0.11 µg/mL; in that of B5, 0.1 µg/mL; in that of B6, 0.06 µg/mL.
Same read-out and setting: in the case of B7 it was 0.27 µg/mL.

In a further test the target is T1, HSC-F. The test is described as follows: FACS binding. The source holds these as a separate data set.
Molecule B2 had a concentration giving a half-maximal response (EC50) of 0.03 µg/mL.
Still for that read-out and setting: in the case of B3 it was 0.02 µg/mL; in that of B1, 0.06 µg/mL; in that of B4, 0.03 µg/mL.
The same measure, in the same setting: in the case of B5 it was 0.04 µg/mL; in that of B6, 0.03 µg/mL.

The target in a further test is T2, human CD3 (on the human T-cell line …). Nature of the test: FACS binding. The source holds these as a separate data set.
Regarding B8, the concentration for a half-maximal effect (EC50) stood at 0.64 µg/mL.
The same measure, in the same setting: for B7 the value was 0.18 µg/mL.

The target in a further test is T1, HSC-F. Nature of the test: FACS binding; Fig 2A.
For the molecule B9, the half-maximal effective concentration (EC50) came to 0.31 µg/mL.
Molecule B1 displayed a concentration giving a half-maximal response (EC50) of 0.3 µg/mL.
Same read-out and setting: for B10 the value was 0.11 µg/mL; for B5, 0.19 µg/mL; for B11, 0.28 µg/mL.
B12 had an EC50 of 0.26 µg/mL.

The target in a further test is T1, HSC-F. The test is described as follows: FACS binding; Fig 2B.
B13 returned an EC50 of 4.46 µg/mL.
Consider B14, for which the response was half-maximal at 3.54 µg/mL (EC50).
Turning to B1, the 50% effective concentration (EC50) was 0.47 µg/mL.
In the case of B5, the EC50 amounted to 0.3 µg/mL.

Another test deals with T2, human CD3 (on the human T-cell line …). The test is described as follows: FACS binding; Fig 1A.
Regarding B9, the EC50 is 0.08 µg/mL.
On the same count and under the same terms, for B10 the value was 0.02 µg/mL; for B5, 0.04 µg/mL.
B11: a half-maximal effect (EC50) was put at 0.06 µg/mL.
In the case of B7, the EC50 is 0.08 µg/mL.
Still for that read-out and setting: in the case of B12 it was 0.05 µg/mL.

For the next test the target is unchanged. Nature of the test: FACS binding; Fig 1B.
B15: the concentration for a half-maximal effect (EC50) amounted to 0.68 µg/mL.
Still for that read-out and setting: for B8 the value was 0.28 µg/mL.
B5 yielded an EC50 of 0.04 µg/mL.
On the same count and under the same terms, in the case of B7 it was 0.07 µg/mL.

In another test the target is T1, HSC-F. The test is described as follows: FACS binding; second row printed H4L1; graph legend indicates H4L3.
Turning to B16, the EC50 was 0.24 µg/mL.
